From PMC2894018 (2010)

Key:
[1] = target: HIV-1 Gag fused to the N- or C-terminal fragment of Venus (HIV-1); assay: split reporter (BiFC, NanoBiT); Venus BiFC in HeLa cells cotransfected with VN and VC fusion plasmids; thirty-six to forty hours after transfection, fixed; percent BiFC positive cells by flow cytometry and fluorescence microscopy
[2] = target: HIV-1 Vpr Δ44 fused to the N- or C-terminal fragment of Venus (UniProt P12520); assay: BiFC (bimolecular fluorescence complementation), flow cytometry on cells; conditions: cells cotransfected with VC and VN fusions of the same Vpr mutant; vector control 0.1; parent: 35.7
[3] = target: HIV-1 Gag fused to the N- or C-terminal fragment of Venus (HIV-1); assay: split reporter (BiFC, NanoBiT); Venus BiFC in 293T cells cotransfected with VC and VN chimeric Vpr and Gag plasmids; fixed thirty-six hours after transfection; percent BiFC positive cells by flow cytometry
[4] = target: T1, HIV-1 Vpr from NL43 (Vpr^wt) fused to the N- or C-terminal fragment of Venus (HIV-1 (NL43)), P12520; assay: split reporter (BiFC, NanoBiT); Venus BiFC in HeLa cells cotransfected with VN and VC fusion plasmids; thirty-six to forty hours after transfection, fixed; percent BiFC positive cells by flow cytometry and fluorescence microscopy; conditions: remark: other sources report otherwise
T1 chain: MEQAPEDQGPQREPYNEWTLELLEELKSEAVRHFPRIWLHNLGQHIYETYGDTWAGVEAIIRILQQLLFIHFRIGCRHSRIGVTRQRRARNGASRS

[5] = target: T1, HIV-1 Vpr from NL43 (Vpr^wt) fused to …; assay: as above; conditions: remark: other sources report otherwise
[6] = target: T1, HIV-1 Vpr from NL43 (Vpr^wt) fused to …; assay: split reporter (BiFC, NanoBiT); Venus BiFC competition: VC-Vpr and VN-Vpr plasmids cotransfected with increasing amounts of untagged Vpr plasmid or empty vector; flow cytometry thirty-six hours after transfection; BiFC positive cells with vector backbone set as 100%; conditions: remark: other sources report otherwise

Molecule: HIV-1 Gag fused to the N- or C-terminal fragment of Venus (natural protein)
- percent BiFC positive cells [1]: 30%

Molecule: HIV-1 Vpr from NL43 (Vpr^wt) fused to the N- or C-terminal fragment of Venus (from UniProt P12520) 44del
- response (% BiFC positive cells) [2]: 1

Molecule: HIV-1 Vpr from NL43 (Vpr^wt) fused to the N- or C-terminal fragment of Venus (from UniProt P12520 1-96) (natural protein)
- percent BiFC positive cells (with VC-Gag) [3]: 27%
- percent BiFC positive cells (with VN-Gag) [3]: 31%
- percent fluorescent positive cells (venus-C-Gag and venus-N-Vpr^wt) [1]: 29%
- percent fluorescent positive cells (venus-N-Gag and venus-C-Vpr^wt) [1]: 34%

Molecule: HIV-1 Vpr E48A fused to the N- or C-terminal fragment of Venus (from UniProt P12520 1-96) (natural protein)
- percent BiFC positive cells (with VC-Gag) [3]: 28%
- percent BiFC positive cells (with VN-Gag) [3]: 29%

Molecule: HIV-1 Vpr R80A fused to the N- or C-terminal fragment of Venus (from UniProt P12520 1-96) (natural protein)
- percent BiFC positive cells (with VC-Gag) [3]: 27%
- percent BiFC positive cells (with VN-Gag) [3]: 33%

B1: HIV-1 Vpr from NL43 (Vpr^wt) fused to the N- or C-terminal fragment of Venus, P12520 1-96 (natural protein)
chain: MEQAPEDQGPQREPYNEWTLELLEELKSEAVRHFPRIWLHNLGQHIYETYGDTWAGVEAIIRILQQLLFIHFRIGCRHSRIGVTRQRRARNGASRS
- percent BiFC positive cells [4]: 26%
- percent BiFC positive cells [5]: 35%

B2: untagged HIV-1 Vpr (expressed from pVpr), P12520 1-96 (natural protein)
chain: MEQAPEDQGPQREPYNEWTLELLEELKSEAVRHFPRIWLHNLGQHIYETYGDTWAGVEAIIRILQQLLFIHFRIGCRHSRIGVTRQRRARNGASRS
- percent BiFC positive cells left (VC-Vpr with VN-Vpr, vector backbone as 100%) at a ratio of 1:10 [6]: < 20%
- percent reduction of BiFC positive cells (VC-Vpr with VN-Vpr) at a ratio of 1:2.5 [6]: 40%
